Reference: article PMC4709261, “Guanylate cyclase 1 relies on rhodopsin for intracellular stability and ciliary trafficking” (eLife, 2015)

Target: T1, retinal guanylate cyclase 1 (mouse (endogenous in retina), UniProt P52785 55-1108)
T1 construct: retinal guanylate cyclase 1 (GC-1), mouse, endogenous in the retina; Endogenous protein precipitated by the anti-GC-1 antibody 1S4 and detected by Western blotting; also called GC-1; RetGC1
T1 sequence (looked up): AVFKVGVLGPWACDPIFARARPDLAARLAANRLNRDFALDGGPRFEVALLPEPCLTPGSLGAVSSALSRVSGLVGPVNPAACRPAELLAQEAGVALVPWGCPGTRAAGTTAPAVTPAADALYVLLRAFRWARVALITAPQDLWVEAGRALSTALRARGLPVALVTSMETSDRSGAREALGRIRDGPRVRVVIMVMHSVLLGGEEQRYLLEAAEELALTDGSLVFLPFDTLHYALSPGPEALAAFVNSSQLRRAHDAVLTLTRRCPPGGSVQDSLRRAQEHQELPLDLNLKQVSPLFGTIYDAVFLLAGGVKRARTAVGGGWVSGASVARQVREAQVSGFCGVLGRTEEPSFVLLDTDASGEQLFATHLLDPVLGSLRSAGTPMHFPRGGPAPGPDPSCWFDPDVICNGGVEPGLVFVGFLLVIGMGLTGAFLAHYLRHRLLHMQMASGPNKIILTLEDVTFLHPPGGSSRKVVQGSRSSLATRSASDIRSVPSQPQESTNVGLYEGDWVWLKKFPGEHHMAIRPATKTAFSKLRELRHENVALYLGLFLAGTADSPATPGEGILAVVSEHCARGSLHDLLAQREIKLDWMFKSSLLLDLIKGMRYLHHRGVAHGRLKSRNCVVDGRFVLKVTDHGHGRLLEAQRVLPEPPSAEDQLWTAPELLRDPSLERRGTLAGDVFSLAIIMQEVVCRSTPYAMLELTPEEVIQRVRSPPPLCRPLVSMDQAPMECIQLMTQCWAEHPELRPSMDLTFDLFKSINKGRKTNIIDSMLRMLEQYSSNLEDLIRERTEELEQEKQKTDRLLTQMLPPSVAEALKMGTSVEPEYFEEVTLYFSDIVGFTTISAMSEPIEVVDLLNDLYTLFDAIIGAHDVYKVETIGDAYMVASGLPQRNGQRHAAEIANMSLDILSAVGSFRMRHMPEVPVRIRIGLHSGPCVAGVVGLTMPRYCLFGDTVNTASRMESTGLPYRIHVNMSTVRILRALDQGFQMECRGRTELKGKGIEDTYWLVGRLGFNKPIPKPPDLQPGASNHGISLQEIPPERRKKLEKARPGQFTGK
Experiment: co-IP; Rho+/- mouse retinal lysate; anti-GC-1 antibody 1S4 (0.2 μg), minimal amount (5 μl) of protein A/G magnetic beads; eluate analysed by Western blotting for GC-1 and rhodopsin; control: non-immune mouse IgG
Conditions: partners not purified

B1: rhodopsin (receptor, mouse (endogenous in retina), UniProt P15409 1-348, looked up)
chain: MNGTEGPNFYVPFSNVTGVVRSPFEQPQYYLAEPWQFSMLAAYMFLLIVLGFPINFLTLYVTVQHKKLRTPLNYILLNLAVADLFMVFGGFTTTLYTSLHGYFVFGPTGCNLEGFFATLGGEIALWSLVVLAIERYVVVCKPMSNFRFGENHAIMGVVFTWIMALACAAPPLVGWSRYIPEGMQCSCGIDYYTLKPEVNNESFVIYMFVVHFTIPMIVIFFCYGQLVFTVKEAAAQQQESATTQKAEKEVTRMVIIMVIFFLICWLPYASVAFYIFTHQGSNFGPIFMTLPAFFAKSSSIYNPVIYIMLNKQFRNCMLTTLCCGKNPLGDDDASATASKTETSQVAPA
notes: rhodopsin, mouse, endogenous in the retina; Endogenous protein precipitated by, or detected with, the anti-rhodopsin antibody 1D4
- fold of rhodopsin precipitation with anti-GC-1 antibody over non-specific background with non-immune IgG: 6.5 fold
